Experimental findings from paper doi:10.1101/332304 (bioRxiv, 2018) are described below.

The target in this assay is T1, (NPNA)2 peptide (Plasmodium falciparum).
T1 chain: NPNANPNA
In words: ITC.

B1: Fab311 inter-Fab contact residue reverted (Fab311R) (Fab, V domains shown)
VH: QVQLVESGGGVVPPGRSLRLSCATSGFTFSSYGMHWVRQAPGKGLEWVAIIWYDGSNKFYAASVKGRFTISRDNSKNTLYLQMNSLRVEDTAVYYCARAAYYDTSGYGDYWGQGTLVTVSS
VL: QSVLTQPPSVSGAPGQTVTISCTGGSSNIGAGYDVHWYQQLPGTAPKLLIYGNINRPSGVPDRFSGSKSGTSASLAITGLQAEDEADYYCQSYDSSLSGSWVFGGGTKLTVL
As to B1, the binding result is on record as “binds”.
